Experiment [1] has as its target Interleukin-8 receptor molecules on purified human neutrophils.
Experiment [2] has the same target. The experiment can be described thus: radioligand binding to purified human neutrophils, with and without 1000-fold molar excess of nonlabeled IL-8.
For experiment [3] the target is unchanged. The experiment can be described thus: saturation binding of radioligand to purified human neutrophils, analysis of binding curves.

In experiment [1], “I-125-labeled human recombinant interleukin-8 (ligand)” gave a neutrophil chemotaxis in a Boyden chamber greater than 95%. The specific binding as share of total binding in experiment [2] was greater than 90%. In addition, in experiment [3], the Kd is 0.83 nM and the estimated maximum binding sites per cell (binding sites per cell) was 60000.

By Kd is commonly meant the constant that tells how readily two partners part at equilibrium.

The values above are taken from patent US5605671.
